For the assay, the target named is RNA-dependent RNA polymerase (RdRp) of HuNoV GII.4 Sydney strain (human norovirus GII.4 Sydney strain). Briefly: SEC + AUC; purified RdRp alone, physiologically relevant conditions (pH 7.5); sedimentation velocity of 10 μM RdRp at 40,000 rpm, 22°C; monomer, dimers and higher-order oligomers.

By stoichiometry N is commonly meant the number of molecules, sites or subunits per partner or assembly. Take “RNA-dependent RNA polymerase (RdRp) of HuNoV GII.4 Sydney strain (enzyme)”: the percent as dimers is 15%, the percent as monomer came to 75% and the stoichiometry N worked out at 2.

(Values after publication PMC11661447.)
